In patent publication US20110250211A1 (INSTITUT PASTEUR, published 2011):
Substitutions are numbered along the chain they refer to. One block for each binder: values may come before it.

Key:
[1] = target: T1, human glial fibrillary acidic protein (GFAP) (human, UniProt P14136 1-432); test: equilibrium competition ELISA in solution (Friguet et al.), GFAP-coated plate
T1 construct: the endogenous protein in fixed human brain sections in the immunolabelling experiments; also called hGFAP
Procedure: (§1) The binding affinity of VHHs was determined as described by FRIGUET et al. (1985, J Immunol Methods, 77:305-319). Briefly, various concentrations of GFAP were incubated in solution overnight at 4° C. with a known quantity of VHH until equilibrium was reached. The VHH concentration had been determined by preliminary ELISA calibrations. 100 μl of solution was transferred to a well of a microtiter plate previously coated with GFAP and was incubated for 20 min at 4° C. The plates were washed with PBS-Tween 0.1%. VHHs were detected with rabbit anti-His tag antibodies (eBiosciences, San Diego, Calif.) followed by adding β-galactosidase-conjugated goat anti-rabbit Igs (Biosys, Compiegne, France) and 4-methylumbelliferyl β-D galactoside (Sigma Aldrich, Saint-Quentin Fallavier, France). Fluorescence was read at 460 nm, after excitation at 355 nm. KD was estimated from the slope of the regression curve obtained by plotting the reciprocal of the fraction of bound antibody versus the reciprocal of the molar concentration of antigen.

[2] = target: T2, murine glial fibrillary acidic protein (GFAP) (mouse, UniProt P03995 1-430); test: Western blot of murine brain extracts
T2 construct: Endogenous protein of brain extracts, brain sections or live brain; also called GFAP in murine brain extracts; GFAP in mouse astrocytes
T2 sequence (P03995 whole entry): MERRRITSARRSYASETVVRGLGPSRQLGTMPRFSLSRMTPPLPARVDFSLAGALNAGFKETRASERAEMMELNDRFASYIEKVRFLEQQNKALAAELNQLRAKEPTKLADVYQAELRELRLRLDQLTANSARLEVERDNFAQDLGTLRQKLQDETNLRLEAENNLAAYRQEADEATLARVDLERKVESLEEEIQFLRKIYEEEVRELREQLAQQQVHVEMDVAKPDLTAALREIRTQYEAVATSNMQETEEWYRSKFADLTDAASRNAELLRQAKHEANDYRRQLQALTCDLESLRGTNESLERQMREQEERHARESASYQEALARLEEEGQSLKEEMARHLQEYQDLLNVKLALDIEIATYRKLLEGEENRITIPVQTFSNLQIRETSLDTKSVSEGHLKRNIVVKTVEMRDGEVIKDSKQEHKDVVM
Procedure: Murine brain extracts were electrophoresed, immunoblotted and incubated with the VHH domains VHH-A10, -B8, -E3 and -E9.
Murine brain proteins (300 mg) were extracted in a potter with 600 μl of NuPage LDS sample buffer (Invitrogen) and kept for […] at 70° C. An aliquot was diluted 1:10 (v/v) with the same sample buffer then treated at 70° C. for 10 min. Following separation by polyacrylamide gel electrophoresis (PAGE) using NuPAGE Novex 4-12% Bis-tris gel (Invitrogen), semi-dry transfer onto Hybond-C (Amersham) and western blotting were carried out using the Xcell II blot module (Invitrogen). Prior to the immunochemical reaction, membranes were blocked in a 4% skimmed milk solution. […] Finally, peroxidase activity was visualized using a chemiluminescent kit (Amersham).

[3] = target: T1, human glial fibrillary acidic protein …; test: competition ELISA (Friguet) after heating 15 min at 75 C and cooling 20 min at 4 C
Procedure: as §1
The heat denaturation of VHH-E9 was adapted to the method described in OLICHON et al. (2007, BMC Biotechnol., 7:7). VHHs are re-suspended in PBS/NaCl 300 mM and are heated for 15 minutes at 75° C. then cooled down at 4° C. for 20 minutes. The binding affinity of VHHs was determined by ELISA as described in Example 1 above.

[4] = target: T1, human glial fibrillary acidic protein …; test: competition ELISA (Friguet) as in Example 1
Procedure: as §1

[5] = target: T1, human glial fibrillary acidic protein …; test: immunohistochemistry on human brain paraffin sections
Procedure: Immunostaining of human brain tissue was performed on 5 μm thick paraffin sections. Sections were de-paraffinized in xylene, rehydrated through ethanol (100%, 96%, and 90%) and finally brought to water. They were incubated with 3% hydrogen peroxyde and 20% methanol, to quench for endogenous peroxydases, and washed in water. Non-specific binding was blocked by incubating the sections for 10 minutes in 2% bovine serum albumin in TBS plus 0.5% Tween.
The distribution of VHH-specific immunoreactivity in mouse and human brains sections were examined after aldehyde fixation and membranes permeabilization, using standard procedure for immunostaining. Immunohistochemistry experiments were performed with VHH-A10 (SEQ ID NO: 5) or VHH domain of SEQ ID NO: 3 fused in frame with the Ig CH2 domain and the His tag (SEQ ID NO: 29) were both used. With this construction, the signal could be amplified by using rabbit anti-alpaca Ig polyclonal antibodies as secondary antibodies, in turn labelled by an anti-rabbit goat polyclonal antibody. As previously reported (LAFAYE et al, 1995, above-cited), the results obtained were similar with the His-tagged antibody.

[6] = target: T2, murine glial fibrillary acidic protein …; test: immunohistochemistry on fixed, permeabilized brain sections
[7] = target: T1, human glial fibrillary acidic protein …; test: equilibrium competition ELISA in solution (Friguet et al.)
Procedure: as §1

T1 sequence (P14136 whole entry): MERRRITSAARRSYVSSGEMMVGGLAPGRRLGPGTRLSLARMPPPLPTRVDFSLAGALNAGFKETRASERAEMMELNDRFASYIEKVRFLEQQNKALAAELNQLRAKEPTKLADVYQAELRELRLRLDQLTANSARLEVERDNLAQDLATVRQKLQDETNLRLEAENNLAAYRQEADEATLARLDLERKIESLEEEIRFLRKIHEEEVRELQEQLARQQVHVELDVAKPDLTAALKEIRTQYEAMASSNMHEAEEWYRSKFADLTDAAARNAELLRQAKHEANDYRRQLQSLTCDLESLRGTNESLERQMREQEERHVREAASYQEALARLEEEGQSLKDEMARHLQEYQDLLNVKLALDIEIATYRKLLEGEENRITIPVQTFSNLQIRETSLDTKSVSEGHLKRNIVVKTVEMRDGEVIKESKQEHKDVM

B1: VHH-E9 (VHH)
VHH: DVQLQVSGGGSVQPGGSLRLSCAASGFTFSNYAMYWLRQAPGKGIEWVSRIGPGGSHTEYADSVKGRFTISRDNAKNTLSLQMNSLKPEDTAVYYCAITQQGSGRGQGTQVTVSS
notes: Alpaca VHH with C-terminal His tag; also called anti-GFAP VHH-E9; native VHH-E9
Kd [1]: 5.6 nM
binding result [2]: binds
Kd [3]: 3.8 nM

B2: VHH-E3 (VHH)
VHH: B1 VHH with S25P, T69A, V93A, Q107R
notes: Alpaca VHH with C-terminal His tag; also called anti-GFAP VHH-E3
binding result [2]: binds

B4: VHH-A10 (VHH)
VHH: DVQLRASGGGLVQPGGSLRLSCAASGFTFSNYAMYWLRQAPGKGIEWVSRIGPGGSHTEYADSVKGRFTISRDNAKNTLSLQMNSLKPEDTAVYYCAITQQGSGRGQETQVTVSSAAALEHHHHHH
notes: Alpaca VHH with C-terminal His tag, expressed in the E. coli periplasm from pET22; also called anti-GFAP VHH-A10; VHH-His
Kd [1]: 3.1 nM
binding result [2]: binds

B5: VHH domain of SEQ ID NO: 3 fused in frame with the Ig CH2 domain and the His tag (VHH)
chain: DVQLRASGGGLVQPGGSLRLSCAASGFTFSNYAMYWLRQAPGKGIEWVSRIGPGGSHTEYADSVKGRFTISRDNAKNTLSLQMNSLKPEDTAVYYCAITQQGSGRGQETQVTVSSAAAAPELLGGPSVFIFPPKPKDVLSISGRPEVTCVVVDVGQEDPEVSFNWYIDGAEVRTANTRPKEEQFNSTYRVVSVLPIQHQDWLTGKEFKCKVNNKALPAPIEKTISKAKLEHHHHHH
notes: the sentence could be read otherwise; also called VHH-A10 fused with the CH2 domain
binding result [5]: binds
binding result [6]: binds

Now from value to binder:

Kd [4]: 12 nM
fold reduction of affinity against native VHH-E9 [4]: 2 fold
B3: VHH-E9 SS-free (VHH)
VHH: B4 VHH with R5Q, A6V, L11S, C22S, C96S, E108G
notes: also called cysteine-free derivative of VHH E9

binding result [2]: binds
Kd [7]: 5.2 nM
B6: VHH-B8 (VHH)
VHH: DVQLQVSGGGSVQPGGSLRLSCAAPGFTFSNYAMYWLRQAPGKGIEWVSRIGPGGSHTEYADSVKGRFAISRDNAKNTLSLQMNSLKPEDTAAYYCAITQQGSGRGRGTQVTVSSAAASLSTELEFGSELIPISMADVQLQVSGGGSVQPGGSLRLSCAASGFTFSNYAMYWLRQAPGKGIEWVSRIGPGGSHTEYADSVKGRFTISRDNAKNTLSLQMNSLKPEDTAVYYCAITQQGSGRGRGTQVTVSSAAALEHHHHHH
notes: One polypeptide entry
